Test results taken from the supplement of paper PMC10065799, “High-throughput profiling of sequence recognition by tyrosine kinases and SH2 domains using bacterial peptide display” (eLife, 2023).

Key:
Grb2 SH2 = Grb2 SH2 (UniProt P62993); assay: SH2 binding enrichment of the phosphorylated peptide, bacterial display (enrichment ratio); higher = better substrate or ligand; peptides without Tyr show the background
c-Src SH2 = assay: as above
SHP2-C SH2 = assay: as above
AncSZ = assay: phosphorylation enrichment, bacterial display (enrichment ratio); higher = better substrate or ligand; peptides without Tyr show the background
Fer (mouse) = assay: as above
c-Src = assay: as above
Fes = Fes (UniProt P07332); assay: as above
Sequence of Fes (P07332 whole entry, looked up): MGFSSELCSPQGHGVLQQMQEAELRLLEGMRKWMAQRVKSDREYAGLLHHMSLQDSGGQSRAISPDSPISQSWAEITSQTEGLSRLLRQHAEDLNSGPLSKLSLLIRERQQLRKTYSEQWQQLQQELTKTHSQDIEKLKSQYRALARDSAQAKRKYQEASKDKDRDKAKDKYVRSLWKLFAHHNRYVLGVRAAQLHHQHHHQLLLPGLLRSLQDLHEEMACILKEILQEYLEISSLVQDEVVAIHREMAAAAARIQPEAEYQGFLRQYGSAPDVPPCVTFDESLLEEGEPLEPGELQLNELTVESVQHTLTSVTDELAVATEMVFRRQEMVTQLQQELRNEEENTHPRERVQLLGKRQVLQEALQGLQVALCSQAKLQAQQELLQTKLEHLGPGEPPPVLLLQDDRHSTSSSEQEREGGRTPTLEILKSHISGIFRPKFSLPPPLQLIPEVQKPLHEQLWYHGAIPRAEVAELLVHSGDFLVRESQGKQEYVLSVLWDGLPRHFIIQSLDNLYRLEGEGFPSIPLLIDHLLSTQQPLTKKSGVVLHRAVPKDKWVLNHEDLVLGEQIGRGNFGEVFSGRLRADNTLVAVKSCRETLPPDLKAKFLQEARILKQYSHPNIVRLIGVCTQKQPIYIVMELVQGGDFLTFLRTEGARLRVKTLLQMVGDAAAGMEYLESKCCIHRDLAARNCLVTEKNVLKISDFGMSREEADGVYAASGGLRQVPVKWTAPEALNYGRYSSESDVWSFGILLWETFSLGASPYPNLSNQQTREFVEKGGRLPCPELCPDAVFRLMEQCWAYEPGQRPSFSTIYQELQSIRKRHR

MERTK = MERTK (UniProt Q12866); assay: as above
Sequence of MERTK (Q12866 whole entry, looked up): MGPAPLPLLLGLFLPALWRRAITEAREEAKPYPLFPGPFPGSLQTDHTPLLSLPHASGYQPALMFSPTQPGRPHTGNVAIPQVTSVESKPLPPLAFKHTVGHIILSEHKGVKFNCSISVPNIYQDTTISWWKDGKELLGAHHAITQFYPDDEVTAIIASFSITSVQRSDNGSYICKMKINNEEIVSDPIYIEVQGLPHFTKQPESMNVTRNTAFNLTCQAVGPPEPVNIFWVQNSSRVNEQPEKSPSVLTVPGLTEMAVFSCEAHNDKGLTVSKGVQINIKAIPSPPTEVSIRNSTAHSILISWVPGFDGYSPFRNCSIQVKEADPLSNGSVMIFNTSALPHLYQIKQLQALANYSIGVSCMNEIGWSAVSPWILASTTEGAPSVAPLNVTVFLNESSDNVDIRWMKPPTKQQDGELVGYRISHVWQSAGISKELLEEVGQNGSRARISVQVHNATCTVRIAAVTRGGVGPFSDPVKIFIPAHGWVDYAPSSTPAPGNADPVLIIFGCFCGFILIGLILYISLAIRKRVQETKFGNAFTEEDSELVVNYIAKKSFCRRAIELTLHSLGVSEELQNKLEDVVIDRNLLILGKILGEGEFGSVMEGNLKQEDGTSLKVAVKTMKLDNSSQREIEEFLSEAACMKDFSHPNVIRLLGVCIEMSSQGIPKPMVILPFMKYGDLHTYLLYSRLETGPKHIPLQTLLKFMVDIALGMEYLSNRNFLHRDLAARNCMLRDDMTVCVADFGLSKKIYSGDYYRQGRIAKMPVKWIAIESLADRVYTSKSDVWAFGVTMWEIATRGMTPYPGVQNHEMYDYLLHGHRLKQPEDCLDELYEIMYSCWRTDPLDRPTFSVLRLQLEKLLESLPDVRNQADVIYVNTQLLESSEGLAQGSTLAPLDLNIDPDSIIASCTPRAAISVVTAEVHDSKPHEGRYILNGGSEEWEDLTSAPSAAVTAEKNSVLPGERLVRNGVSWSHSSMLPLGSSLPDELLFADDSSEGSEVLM

FGFR3 = FGFR3 (UniProt P22607); assay: as above
EPHB2 = EPHB2 (UniProt P29323); assay: as above
Jak2 = Jak2 (UniProt O60674); assay: as above
Sequence of Jak2 (O60674 whole entry, looked up): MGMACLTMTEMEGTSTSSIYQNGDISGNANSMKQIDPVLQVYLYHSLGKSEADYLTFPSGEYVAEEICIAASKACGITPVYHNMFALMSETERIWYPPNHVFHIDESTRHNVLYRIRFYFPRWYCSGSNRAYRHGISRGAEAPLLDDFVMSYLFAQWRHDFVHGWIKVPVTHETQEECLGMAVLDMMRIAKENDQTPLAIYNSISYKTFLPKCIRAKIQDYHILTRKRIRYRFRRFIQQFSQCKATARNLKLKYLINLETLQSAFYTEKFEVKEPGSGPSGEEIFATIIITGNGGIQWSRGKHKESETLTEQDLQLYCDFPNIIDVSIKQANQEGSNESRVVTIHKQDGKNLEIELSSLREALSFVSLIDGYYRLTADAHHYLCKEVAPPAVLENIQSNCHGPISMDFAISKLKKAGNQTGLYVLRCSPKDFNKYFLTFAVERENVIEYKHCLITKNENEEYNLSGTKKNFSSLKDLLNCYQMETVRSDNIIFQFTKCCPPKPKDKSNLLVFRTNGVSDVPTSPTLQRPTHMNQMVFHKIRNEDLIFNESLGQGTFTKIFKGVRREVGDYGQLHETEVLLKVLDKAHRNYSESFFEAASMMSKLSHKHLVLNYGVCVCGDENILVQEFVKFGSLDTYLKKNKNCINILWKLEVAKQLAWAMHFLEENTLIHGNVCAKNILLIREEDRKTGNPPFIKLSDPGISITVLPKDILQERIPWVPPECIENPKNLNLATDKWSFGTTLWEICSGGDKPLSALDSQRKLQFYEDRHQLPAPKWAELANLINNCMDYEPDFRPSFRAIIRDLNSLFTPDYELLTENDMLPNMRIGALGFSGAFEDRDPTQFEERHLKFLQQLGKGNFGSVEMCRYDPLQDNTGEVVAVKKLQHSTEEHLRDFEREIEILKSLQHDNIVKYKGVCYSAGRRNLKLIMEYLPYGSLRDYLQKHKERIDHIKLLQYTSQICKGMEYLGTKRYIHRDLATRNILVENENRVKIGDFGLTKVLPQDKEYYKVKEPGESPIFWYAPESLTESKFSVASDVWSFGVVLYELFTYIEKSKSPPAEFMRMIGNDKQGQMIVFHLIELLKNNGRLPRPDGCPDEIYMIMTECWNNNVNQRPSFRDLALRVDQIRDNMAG

Hck = Hck (UniProt P08631); assay: as above
Sequence of Hck (P08631 whole entry, looked up): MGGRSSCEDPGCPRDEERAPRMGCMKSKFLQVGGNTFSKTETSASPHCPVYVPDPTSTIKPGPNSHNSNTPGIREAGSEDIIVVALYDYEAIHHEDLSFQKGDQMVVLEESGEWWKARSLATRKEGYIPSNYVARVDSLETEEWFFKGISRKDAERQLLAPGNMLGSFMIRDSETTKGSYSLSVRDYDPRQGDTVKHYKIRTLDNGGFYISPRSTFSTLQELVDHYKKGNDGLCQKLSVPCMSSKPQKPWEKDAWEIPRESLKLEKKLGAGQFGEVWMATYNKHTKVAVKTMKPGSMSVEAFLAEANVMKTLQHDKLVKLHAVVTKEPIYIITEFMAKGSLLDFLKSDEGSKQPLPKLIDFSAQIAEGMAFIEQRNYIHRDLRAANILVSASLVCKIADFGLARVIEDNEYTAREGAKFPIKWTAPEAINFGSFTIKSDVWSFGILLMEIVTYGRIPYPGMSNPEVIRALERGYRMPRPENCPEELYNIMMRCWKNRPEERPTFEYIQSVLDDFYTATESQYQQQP

EPHB1 = EPHB1 (UniProt P54762); assay: as above
FGFR1 = FGFR1 (UniProt P11362); assay: as above
Sequence of FGFR1 (P11362 whole entry, looked up): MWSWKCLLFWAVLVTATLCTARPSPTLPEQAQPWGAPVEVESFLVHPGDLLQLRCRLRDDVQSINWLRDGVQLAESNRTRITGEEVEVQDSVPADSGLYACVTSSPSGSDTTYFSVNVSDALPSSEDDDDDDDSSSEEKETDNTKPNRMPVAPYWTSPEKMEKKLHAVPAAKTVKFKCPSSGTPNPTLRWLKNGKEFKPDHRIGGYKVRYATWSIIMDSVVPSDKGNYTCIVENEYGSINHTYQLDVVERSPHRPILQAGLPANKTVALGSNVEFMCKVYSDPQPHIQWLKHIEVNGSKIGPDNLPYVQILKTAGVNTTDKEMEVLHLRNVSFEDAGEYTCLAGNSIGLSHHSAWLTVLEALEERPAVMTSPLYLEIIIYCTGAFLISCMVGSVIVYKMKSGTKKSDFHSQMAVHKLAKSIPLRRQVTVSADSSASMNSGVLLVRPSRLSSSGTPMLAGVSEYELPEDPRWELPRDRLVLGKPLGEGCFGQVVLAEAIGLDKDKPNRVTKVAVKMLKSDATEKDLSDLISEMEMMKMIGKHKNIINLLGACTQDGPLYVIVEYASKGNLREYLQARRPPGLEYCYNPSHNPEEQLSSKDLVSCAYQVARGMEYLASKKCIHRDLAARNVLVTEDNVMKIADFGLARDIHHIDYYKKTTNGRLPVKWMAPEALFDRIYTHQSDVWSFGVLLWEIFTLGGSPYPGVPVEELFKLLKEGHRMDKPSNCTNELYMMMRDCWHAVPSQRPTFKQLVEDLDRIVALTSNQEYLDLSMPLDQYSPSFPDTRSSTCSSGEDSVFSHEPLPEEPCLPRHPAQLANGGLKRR

c-Abl (mouse) = assay: as above
Fyn = Fyn (UniProt P06241); assay: as above
Sequence of Fyn (P06241 whole entry, looked up, the tested form may be a part): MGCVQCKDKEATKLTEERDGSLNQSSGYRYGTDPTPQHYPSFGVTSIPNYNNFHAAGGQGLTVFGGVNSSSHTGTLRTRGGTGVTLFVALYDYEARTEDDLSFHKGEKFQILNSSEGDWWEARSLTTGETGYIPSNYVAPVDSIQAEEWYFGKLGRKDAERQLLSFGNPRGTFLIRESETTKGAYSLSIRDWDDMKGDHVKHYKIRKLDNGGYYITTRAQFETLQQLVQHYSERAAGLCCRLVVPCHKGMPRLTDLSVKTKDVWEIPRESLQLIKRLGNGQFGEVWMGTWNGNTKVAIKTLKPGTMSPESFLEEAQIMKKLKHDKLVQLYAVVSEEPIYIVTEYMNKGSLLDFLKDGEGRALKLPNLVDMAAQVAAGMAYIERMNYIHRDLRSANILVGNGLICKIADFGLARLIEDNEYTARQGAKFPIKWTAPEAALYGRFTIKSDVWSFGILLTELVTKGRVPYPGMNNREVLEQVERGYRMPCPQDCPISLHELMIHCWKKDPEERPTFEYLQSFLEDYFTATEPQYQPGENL
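Throughout, for SH2 binding enrichment of the phosphorylated peptide, bacterial display: peptide library displayed on the E. coli surface as eCPX fusions, selected cells deep-sequenced, score is each peptide's frequency after selection divided by its frequency in the input.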
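Throughout, for phosphorylation enrichment, bacterial display: 11-residue human phosphosite peptides and single-mutation variants displayed on the E. coli surface, counted by deep sequencing, each peptide's frequency after selection divided by its frequency in the unselected input library; frequency after pTyr selection over input frequency; kinase dosed for 20-30% of maximal phosphorylation in three min.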

Sequence of Grb2 SH2 (P62993 whole entry, looked up): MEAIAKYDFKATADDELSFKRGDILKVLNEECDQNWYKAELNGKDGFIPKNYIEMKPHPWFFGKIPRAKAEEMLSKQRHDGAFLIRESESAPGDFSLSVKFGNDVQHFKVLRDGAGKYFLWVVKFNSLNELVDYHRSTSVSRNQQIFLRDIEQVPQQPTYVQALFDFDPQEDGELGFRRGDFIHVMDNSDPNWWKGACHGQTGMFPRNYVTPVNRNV

Row | Sequence | SH2 binding enrichment (Grb2 SH2) | SH2 binding enrichment (c-Src SH2) | SH2 binding enrichment (SHP2-C SH2) | phosphorylation enrichment (AncSZ) | phosphorylation enrichment (Fer (mouse)) | phosphorylation enrichment (c-Src) | phosphorylation enrichment (Fes) | phosphorylation enrichment (MERTK) | phosphorylation enrichment (FGFR3) | phosphorylation enrichment (EPHB2) | phosphorylation enrichment (Jak2) | phosphorylation enrichment (Hck) | phosphorylation enrichment (EPHB1) | phosphorylation enrichment (FGFR1) | phosphorylation enrichment (c-Abl (mouse)) | phosphorylation enrichment (Fyn)
1 | DAHFTYSRFPW [LY75_Y888_D884A_YF] | 1.06 | 0.719 | 0.942 | 1.05 | 0.499 | 5.62 | 1.09 | 3.89 | 0.736 | 3.63 | 1.29 | 5.79 | 2.72 | 0.748 | 1 | 3.13
2 | DDERGYRRVRS [GIGYF2_Y268] | 0.86 | 0.656 | 0.623 | 0.563 | 0.406 | 0.461 | 0.593 | 0.455 | 0.407 | 0.398 | 0.461 | 0.353 | 0.306 | 0.386 | 0.563 | 0.366
3 | DFDHSYFFIAT [ESD_Y262_G257D_YF] | 0.828 | 0.455 | 0.568 | 2.16 | 0.786 | 0.738 | 1.36 | 0.867 | 7.62 | 0.606 | 7.99 | 0.694 | 0.717 | 8.9 | 0.958 | 0.55
4 | DFFDLYGGKKF [PTPN11_Y66_E69K_YF] | 0.967 | 0.428 | 0.775 | 1.01 | 0.499 | 3.49 | 1.02 | 0.489 | 0.616 | 0.519 | 0.974 | 7.26 | 0.44 | 0.57 | 0.69 | 3.04
5 | DFTSRYLSASD [PKHD1_Y828_N830S] | 0.694 | 0.527 | 0.713 | 0.79 | 0.42 | 0.329 | 0.846 | 0.46 | 0.605 | 0.564 | 0.625 | 0.453 | 0.549 | 0.535 | 0.546 | 0.466
6 | DIRAQYDELAR [KRT18_Y256] | 0.931 | 7.06 | 0.702 | 1.02 | 0.503 | 0.474 | 1.01 | 0.47 | 0.592 | 0.483 | 1.04 | 0.761 | 0.452 | 0.576 | 0.766 | 0.58
7 | DKANRYFSPNV [PTEN_Y336_F341V] | 0.808 | 0.644 | 0.839 | 0.446 | 0.363 | 0.388 | 0.544 | 0.354 | 0.504 | 0.394 | 0.412 | 0.376 | 0.297 | 0.355 | 0.486 | 0.378
8 | DKATEYSQFMR [MAX_Y70_I71S_YF] | 0.824 | 0.512 | 0.688 | 0.84 | 0.392 | 0.873 | 0.683 | 0.423 | 0.397 | 0.541 | 0.524 | 0.631 | 0.39 | 0.449 | 0.519 | 0.733
9 | DLAAQYTTVGH [SGSH_Y240_R245H] | 0.843 | 3.24 | 1.41 | 0.854 | 0.519 | 0.699 | 0.947 | 0.405 | 0.651 | 0.453 | 0.586 | 0.96 | 0.463 | 0.462 | 0.593 | 0.585
10 | DLQDENDFKCK [STAT1_Y170_Y170N] | 0.897 | 0.43 | 0.642 | 1.42 | 0.612 | 0.498 | 1.86 | 0.415 | 0.853 | 0.737 | 1.55 | 0.602 | 0.621 | 0.568 | 0.812 | 0.548
11 | DLRTGYSVPFG [TGM1_Y370_Y365D_YF] | 0.973 | 7.49 | 0.928 | 0.664 | 0.486 | 0.341 | 0.721 | 0.364 | 0.644 | 0.468 | 0.576 | 0.418 | 0.44 | 0.493 | 0.794 | 0.48
12 | DPEGAYTTRGG [EPHA3_Y779_A777G] | 0.979 | 0.524 | 0.911 | 0.896 | 0.515 | 0.536 | 0.798 | 0.412 | 0.534 | 0.501 | 0.774 | 0.483 | 0.497 | 0.369 | 0.789 | 0.394
13 | DPGVSYRTREE [PDHA1_Y301] | 0.744 | 0.732 | 0.844 | 0.891 | 0.368 | 0.376 | 0.809 | 0.378 | 0.53 | 0.61 | 0.549 | 0.461 | 0.385 | 0.637 | 0.647 | 0.409
14 | DPKFHYDNTAG [KDR_Y1214] | 0.989 | 0.738 | 0.646 | 0.667 | 0.401 | 0.547 | 0.79 | 0.505 | 0.489 | 0.422 | 0.698 | 0.496 | 0.373 | 0.467 | 0.497 | 0.524
15 | DPLLTYWFPPK [LMNA_Y481_R482W] | 1.19 | 0.67 | 0.797 | 2.78 | 0.933 | 6.1 | 1.13 | 9.17 | 6.67 | 14.8 | 5.74 | 7.34 | 12.6 | 8.47 | 11.6 | 6.5
16 | DPYHVYIKNRV [KCNE3_Y95] | 0.874 | 1.09 | 0.762 | 0.973 | 0.375 | 2.15 | 1.02 | 0.396 | 0.628 | 0.567 | 0.872 | 0.958 | 0.544 | 0.407 | 0.832 | 1.02
